B1: IAR044-030 (other)
chain: EVQLLESGGGLVQPGGSLRLSCAASGFALDYYAIGWFRQAPGKGLEGVSCISSGEGSTYYADSVKGRFTISRDNSKNTVYLQMNSLRAEDTAVYYCATDSRGDDVACEGLRRNEYDYWGQGTLVTVSSGGGGGGGGGGSDTGRPFVEMYSEIPEIIHMTEGRELVIPCRVTSPNITVTLKKFPLDTLIPDGKRIIWDSRKGFIISNATYKEIGLLTCEATVNGHLYKTNYLTHRQTNTIIDVVLSPSHGIELSVGEKLVLNCTARTELNVGIDFNWEYPSSKHQHKKLVNRDLKTQSGSEMKKFLSTLTIDGVTRSDQGLYTCAASSGLMTKKNSTFVRVHEKESKYGPPCPPCPPCGGGGGGGGGGEVQLVESGGGLVQPGGSLRLSCAASGSSFSPYAMGWYRQAPGKQRELVSATSEGGFTLYADSVKGRFTISRDNSKNTVYLQMNSLRAEDTAVYYCYMHWRGSDPENYWGQGTQVTVSS
notes: No Fc; also called anti-VEGFA/VEGFC/Ang2 multi-specific fusion protein
B2: IAR044-039 (other)
chain: SDTGRPFVEMYSEIPEIIHMTEGRELVIPCRVTSPNITVTLKKFPLDTLIPDGKRIIWDSRKGFIISNATYKEIGLLTCEATVNGHLYKTNYLTHRQTNTIIDVVLSPSHGIELSVGEKLVLNCTARTELNVGIDFNWEYPSSKHQHKKLVNRDLKTQSGSEMKKFLSTLTIDGVTRSDQGLYTCAASSGLMTKKNSTFVRVHEKESKYGPPCPPCPPCGGGGGGGGGGEVQLLESGGGLVQPGGSLRLSCAASGFALDYYAIGWFRQAPGKGLEGVSCISSGEGSTYYADSVKGRFTISRDNSKNTVYLQMNSLRAEDTAVYYCATDSRGDDVACEGLRRNEYDYWGQGTLVTVSSGGGGGGGGGGEVQLVESGGGLVQPGGSLRLSCAASGSSFSPYAMGWYRQAPGKQRELVSATSEGGFTLYADSVKGRFTISRDNSKNTVYLQMNSLRAEDTAVYYCYMHWRGSDPENYWGQGTQVTVSS
notes: Trispecific fusion protein: VEGFA mini-Trap, hinge linker, anti-Ang2 VHH, linker, anti-VEGFC VHH
B3: IAR044-040 (other)
chain: SDTGRPFVEMYSEIPEIIHMTEGRELVIPCRVTSPNITVTLKKFPLDTLIPDGKRIIWDSRKGFIISNATYKEIGLLTCEATVNGHLYKTNYLTHRQTNTIIDVVLSPSHGIELSVGEKLVLNCTARTELNVGIDFNWEYPSSKHQHKKLVNRDLKTQSGSEMKKFLSTLTIDGVTRSDQGLYTCAASSGLMTKKNSTFVRVHEKEKTHTCPPCPPCGGGGGGGGGGEVQLLESGGGLVQPGGSLRLSCAASGFALDYYAIGWFRQAPGKGLEGVSCISSGEGSTYYADSVKGRFTISRDNSKNTVYLQMNSLRAEDTAVYYCATDSRGDDVACEGLRRNEYDYWGQGTLVTVSSGGGGGGGGGGEVQLVESGGGLVQPGGSLRLSCAASGSSFSPYAMGWYRQAPGKQRELVSATSEGGFTLYADSVKGRFTISRDNSKNTVYLQMNSLRAEDTAVYYCYMHWRGSDPENYWGQGTQVTVSS
notes: as for B2
B4: IAR044-038 (other)
chain: SDTGRPFVEMYSEIPEIIHMTEGRELVIPCRVTSPNITVTLKKFPLDTLIPDGKRIIWDSRKGFIISNATYKEIGLLTCEATVNGHLYKTNYLTHRQTNTIIDVVLSPSHGIELSVGEKLVLNCTARTELNVGIDFNWEYPSSKHQHKKLVNRDLKTQSGSEMKKFLSTLTIDGVTRSDQGLYTCAASSGLMTKKNSTFVRVHEKEPKSSPPCPPCPAPCGGGGGGGGGGEVQLLESGGGLVQPGGSLRLSCAASGFALDYYAIGWFRQAPGKGLEGVSCISSGEGSTYYADSVKGRFTISRDNSKNTVYLQMNSLRAEDTAVYYCATDSRGDDVACEGLRRNEYDYWGQGTLVTVSSGGGGGGGGGGEVQLVESGGGLVQPGGSLRLSCAASGSSFSPYAMGWYRQAPGKQRELVSATSEGGFTLYADSVKGRFTISRDNSKNTVYLQMNSLRAEDTAVYYCYMHWRGSDPENYWGQGTQVTVSS
notes: as for B2
B5: IAR044-032 (other)
chain: EVQLLESGGGLVQPGGSLRLSCAASGFALDYYAIGWFRQAPGKGLEGVSCISSGEGSTYYADSVKGRFTISRDNSKNTVYLQMNSLRAEDTAVYYCATDSRGDDVACEGLRRNEYDYWGQGTLVTVSSGGGGGGGGGGSDTGRPFVEMYSEIPEIIHMTEGRELVIPCRVTSPNITVTLKKFPLDTLIPDGKRIIWDSRKGFIISNATYKEIGLLTCEATVNGHLYKTNYLTHRQTNTIIDVVLSPSHGIELSVGEKLVLNCTARTELNVGIDFNWEYPSSKHQHKKLVNRDLKTQSGSEMKKFLSTLTIDGVTRSDQGLYTCAASSGLMTKKNSTFVRVHEKEKTHTCPPCPPCGGGGGGGGGGEVQLVESGGGLVQPGGSLRLSCAASGSSFSPYAMGWYRQAPGKQRELVSATSEGGFTLYADSVKGRFTISRDNSKNTVYLQMNSLRAEDTAVYYCYMHWRGSDPENYWGQGTQVTVSS
notes: as for B1

How the values were obtained:
[1] = molecular target: T1, human VEGF165 (R&D) (human, UniProt P15692-4 27-191); test: BLI (ForteBio), bivalent binding, 30 C
T1 construct: also called VEGFA; human VEGFA
T1 sequence (P15692 other isoform, or with tags, fused parts or gaps limits assumed): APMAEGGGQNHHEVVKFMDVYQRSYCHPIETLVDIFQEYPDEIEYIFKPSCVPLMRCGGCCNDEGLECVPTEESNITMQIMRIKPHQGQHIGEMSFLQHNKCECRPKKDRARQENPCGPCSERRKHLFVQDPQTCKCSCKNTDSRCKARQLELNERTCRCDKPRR

[2] = molecular target: T2, human VEGFC (R&D) (human, UniProt P49767 103-227); test: BLI (ForteBio), bivalent binding, 30 C
T2 construct: also called hVEGFC; recombinant human VEGFC protein
T2 sequence (looked up): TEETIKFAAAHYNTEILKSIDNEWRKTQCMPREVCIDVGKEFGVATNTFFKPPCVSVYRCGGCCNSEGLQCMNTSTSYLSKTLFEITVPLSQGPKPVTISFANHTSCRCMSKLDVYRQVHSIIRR

[3] = molecular target: T3, human Ang2 (Beijing Sino Biological) (human, UniProt O15123 19-496, limits assumed); test: BLI (ForteBio), bivalent binding, 30 C
T3 construct: Antigen of the BLI and SPR experiments; also called angiopoietin 2; ANGPT2
T3 sequence (looked up): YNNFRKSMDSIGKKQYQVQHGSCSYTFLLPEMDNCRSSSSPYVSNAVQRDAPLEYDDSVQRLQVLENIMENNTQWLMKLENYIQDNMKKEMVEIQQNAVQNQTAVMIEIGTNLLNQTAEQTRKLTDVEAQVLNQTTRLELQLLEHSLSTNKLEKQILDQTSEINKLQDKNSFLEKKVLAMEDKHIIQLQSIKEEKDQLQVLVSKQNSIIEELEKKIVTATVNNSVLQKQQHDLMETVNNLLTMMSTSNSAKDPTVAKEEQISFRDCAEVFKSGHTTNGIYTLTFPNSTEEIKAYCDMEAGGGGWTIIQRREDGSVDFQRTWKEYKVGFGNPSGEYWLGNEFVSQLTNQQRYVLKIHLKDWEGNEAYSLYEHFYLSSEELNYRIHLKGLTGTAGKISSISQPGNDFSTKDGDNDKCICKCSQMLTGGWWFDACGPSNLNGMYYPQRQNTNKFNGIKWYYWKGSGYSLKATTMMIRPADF

[4] = molecular target: T1, human VEGF165 (R&D); test: SPR (Biacore T200), CM5 chip, 1:1 binding model
[5] = molecular target: T2, human VEGFC (R&D); test: SPR (Biacore T200), CM5 chip, bivalent binding, 1:1 binding model
[6] = molecular target: T3, human Ang2 (Beijing Sino Biological); test: as above
[7] = molecular target: T1, human VEGF165 (R&D); test: BLI (ForteBio), bivalent binding, 30 C; * beyond the limit of detection
[8] = molecular target: T2, human VEGFC (R&D); test: as above
[9] = molecular target: T3, human Ang2 (Beijing Sino Biological); test: as above

Row | Kd [1] [nM] | kon [1] [M⁻¹ s⁻¹] | Kd [2] [nM] | kon [2] [M⁻¹ s⁻¹] | Kd [3] [nM] | kon [3] [M⁻¹ s⁻¹] | Kd [4] [nM] | koff [4] [s⁻¹] | kon [4] [M⁻¹ s⁻¹] | Kd [5] [nM] | koff [5] [s⁻¹] | kon [5] [M⁻¹ s⁻¹] | Kd [6] [nM] | koff [6] [s⁻¹] | kon [6] [M⁻¹ s⁻¹] | koff [7] [s⁻¹] | koff [8] [s⁻¹] | koff [9] [s⁻¹] | koff [1] [s⁻¹] | koff [3] [s⁻¹] | further results | Binder
1 | ≤ 0.515 | 389000 | ≤ 1.04 | 193000 | ≤ 0.206 | 973000 | 0.151 | 6.01e-05 | 399000 | < 0.234 | < 1e-05 | 42800 | 0.00932 | 1.76e-05 | 1.89e+06 | ≤ 0.0002 | ≤ 0.0002 | ≤ 0.0002 | – | – | – | B1
2 | 0.582 | 468000 | 1.01 | 225000 | 0.705 | 606000 | – | – | – | – | – | – | – | – | – | – | – | – | 0.000272 | 0.000427 | koff [2]: 0.000227 s⁻¹ | B2
3 | 0.609 | 481000 | 0.885 | 236000 | 0.783 | 652000 | – | – | – | – | – | – | – | – | – | – | – | – | 0.000293 | 0.00051 | koff [2]: 0.000209 s⁻¹ | B3
4 | 0.668 | 450000 | ≤ 0.92 | 217000 | 0.475 | 597000 | – | – | – | – | – | – | – | – | – | – | ≤ 0.0002 | – | 0.0003 | 0.000283 | – | B4
5 | ≤ 0.517 | 387000 | ≤ 1.01 | 197000 | ≤ 0.22 | 908000 | 0.203 | 7.75e-05 | 382000 | < 0.276 | < 1e-05 | 36200 | 0.012 | 1.92e-05 | 1.63e+06 | ≤ 0.0002 | ≤ 0.0002 | ≤ 0.0002 | – | – | – | B5
